Columns and labels:
[1] = molecular target: EWEnH fusion protein (EWE fused to FH CCP2-4) (human); experiment: BLI; kinetics: EWE, EWEµH or EWEnH held on anti-penta his (His1K) biosensors, dilution series of C3b or iC3b; 20 mM HEPES pH 7.5, 150 mM NaCl, 30°C; 1:1 model
[2] = molecular target: EWEµH fusion protein (EWE fused to FH CCP2-4 and CCP19-20) (human); experiment: as above

Row | Substance | Kd [1] | Kd [2]
1 | iC3b (domain or fragment) | 7.1 nM | 2.9 nM
2 | C3b (proteolytic fragment of complement component C3) (from UniProt P01024 749-1663; P01024 749-1663) (domain or fragment) | 8.9 nM | 0.4 nM
